Paper PMC12871931, “The importin‐alpha superfamily engages in ethylene signaling by shuttling [sequence] INSENSITIVE 2 from the endoplasmic reticulum to the nucleus” (The Febs Journal, 2025)

Tests used:
[1] = molecular target: ΔIBB_IMPα1 (Arabidopsis thaliana, UniProt Q96321); format: binding
From the text: Next, we used biolayer interferometry (BLI) with an Octet K2 instrument (Fortè Bio, Dallas, USA) to substantiate and further delineate the binding interactions between the IMPα superfamily and the EIN2‐NLS motif. BLI measures slight changes in reflected light at a sensor surface upon the formation of molecular complexes. Specifically, it monitors interference patterns of white light, which are reflected from two different surfaces: an internal reference layer and a layer of biomolecules immobilized on a biosensor tip.
In these binding assays, IMPα1 lacking the IBB domain (ΔIBB_IMPα1) and IMPα4 were selected as representatives of the IMPα superfamily. Prior to their interaction studies with different EIN2 CEND‐NLS probes, both importins were biotinylated with the Biotin‐PEG4‐NHS ester Protein Labeling Kit from Jena Bioscience (Jena, Germany) and immobilized onto streptavidin‐coated biosensor tips (Fig. 5).
Curve fitting of the BLI sensorgrams was tested with different binding models. […] This model assumes analyte binding at two independent ligand sites at the IMPα immobilized on the biosensor surface. Furthermore, each ligand site binds the analyte independently and with a different rate constant. […]

[2] = tested on: N. benthamiana epidermal leaf cells; test: Confocal fluorescence microscopy, subcellular localization; format: cell-based; conditions: Cerulean fusion, transiently transformed N. benthamiana epidermal leaf cells
Method: (§1) A modified version of a previously described procedure was used for the transient transformation of N. benthamiana. An overnight culture of agrobacteria was inoculated in DYT and incubated at 28°C one day before infiltration. Bacteria were then centrifuged at 4000 g and resuspended in infiltration medium (5% (w/v) Saccharose; 0.01% (w/v) MgSO4; 0.01% (w/v) Glucose; Acetosyringone 450 μM) to an OD600 of 0.4–0.8. Resuspended bacteria were kept on ice for 1–2 h prior to infiltration. For co‐infiltration, bacteria solutions were mixed in equal quantities, and Agrobacterium strain GV3101:p19 expressing the p19 silencing inhibitor was added to each mix. Infiltration of the bacteria solution was performed with a 1 mL syringe onto the abaxial side of 3‐ to 4‐week‐old plants. Plants were kept under continuous light before microscopy analysis. For ß‐estradiol inducible constructs, plants were sprayed on the abaxial side of infiltrated leaves with an estradiol solution (ß‐estradiol 20 μM; Tween‐20 0.1% (w/v)) prior to imaging.
For fluorescence imaging, a Zeiss LSM 780 confocal microscope (40× water immersion objective, Zeiss C‐PlanApo, NA 1.2) was used. YFP was excited at 514 nm and Cerulean at 458 nm. Signal recording of each fluorophore was done within its maximum emission peak while avoiding auto‐fluorescence above 650 nm. […]

[3] = tested on: EIN2C^479–1294; test: In planta FLIM‐FRET, EIN2C^479–1294‐CER donor, IMPα‐YFP acceptors; format: cell-based, Arabidopsis thaliana; conditions: N. benthamiana epidermal leaf cells; for average fluorescence lifetime of the EIN2C^479‐1294‐CER donor: co‐expression, vs donor only, Kruskal‐Wallis and Dunn's test, 18–20 measurements
From the text: To further investigate the interaction between members of the IMPα superfamily and EIN2 in planta, we used in vivo fluorescence lifetime microscopy and Förster's resonance energy transfer (FLIM‐FRET). Accordingly, the C‐terminal part of EIN2 (EIN2C^479–1294) was fused to the fluorescent protein Cerulean (CER), serving as a donor, and the IMPα isoforms (IMPα1‐7) were fused to YELLOW FL[…] (YFP), serving as acceptors.
as §1
Fluorescence lifetime imaging was performed using a protocol described previously. Fluorescence lifetime was measured at a Zeiss LSM 780 confocal microscope (40× water immersion objective, Zeiss C‐PlanApo, NA 1.2). For TCSPC, a PicoQuant Hydra Harp 400 (PicoQuant, Berlin, Germany) was used. Photon counting was performed with a picosecond resolution. Cerulean was excited with a 440 nm ([…], 32 MHz, PicoQuant, Berlin, Germany) pulsed polarized laser. Laser power at the objective lens was adjusted to ~2.2 μW in N. benthamiana experiments. […] Photons were detected in both donor and acceptor channels simultaneously with Tau‐SPADs (PicoQuant, Berlin, Germany). […] Internal response functions for each laser were determined by measuring the fluorescence decay of quenched Atto425 in saturated KI, using the same hardware settings as for the FRET pair of interest. Fluorescence lifetime images were acquired in the cytosol, ER, or nucleus in donor‐only samples and samples with IMPα1‐4 and IMPα7. […]
The fluorescence decays were fitted using a previously reported method with minor modifications.
The fluorescence decays of selected ROIs in the FLIM image were analyzed with the SymPhoTime FLIM analysis software (SymPhoTime 64, version 2.4; PicoQuant, Berlin, Germany). […]

Chain of ΔIBB_IMPα1 (Q96321 whole entry, stated change not applied): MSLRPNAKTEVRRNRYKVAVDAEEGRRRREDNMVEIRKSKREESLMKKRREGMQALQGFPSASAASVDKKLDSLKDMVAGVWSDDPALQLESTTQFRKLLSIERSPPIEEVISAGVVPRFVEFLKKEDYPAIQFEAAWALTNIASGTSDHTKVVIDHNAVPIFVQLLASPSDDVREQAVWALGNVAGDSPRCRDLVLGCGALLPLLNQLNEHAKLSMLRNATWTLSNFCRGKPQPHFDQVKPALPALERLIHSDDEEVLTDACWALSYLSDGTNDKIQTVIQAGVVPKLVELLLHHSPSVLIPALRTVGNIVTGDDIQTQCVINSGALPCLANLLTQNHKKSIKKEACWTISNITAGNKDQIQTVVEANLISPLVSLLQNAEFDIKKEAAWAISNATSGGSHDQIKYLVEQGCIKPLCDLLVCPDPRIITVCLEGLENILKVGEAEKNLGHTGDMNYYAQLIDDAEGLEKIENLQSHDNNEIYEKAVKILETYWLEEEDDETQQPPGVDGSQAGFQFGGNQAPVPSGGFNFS

B1: GB1‐AtEIN2C^1215–1281: CEND construct containing a GB1‐tag to enhance solubility, produced recombinantly in E. coli (protein)
chain: {GB1 tag}-KGKCTTAVTLLDLIKDVEMAISCRKGRTGTAAGDVAFPKGKENLASVLKRYKRRLSNKPVGMNQDGP
modifications: not fully specified
notes: CEND construct containing a GB1‐tag to enhance solubility, produced recombinantly in E. coli
Work on B1 yielded a Hill coefficient ([1]; BLI dose response, ΔIBB_IMPα1) of 0.94 ± 0.06 and a Kd ([1]; BLI, ΔIBB_IMPα1 biotinylated on streptavidin biosensor (15 μM in 100 mM Tris pH 7.0, 100 mM KCl, 0.01% Tween 20), room temperature, association 300 s, dissociation 300 s, 1:2 heterogeneous ligand model, n = 3, read-out: K d + SD) of 8.8 ± 1.1 µM.

B2: EIN2C^479–1294: C‐terminal part of EIN2 fused to Cerulean (CER), FRET donor (protein)
chain: NALSYPSVQEEEIERTETRRNEDESIVRLESRVKDQLDTTSVTSSVYDLPENILMTDQEIRSSPPEERELDVKYSTSQVSSLKEDSDVKEQSVLQSTVVNEVSDKDLIVETKMAKIEPMSPVEKIVSMENNSKFIEKDVEGVSWETEEATKAAPTSNFTVGSDGPPSFRSLSGEGGSGTGSLSRLQGLGRAARRHLSAILDEFWGHLYDFHGQLVAEARAKKLDQLFGTDQKSASSMKADSFGKDISSGYCMSPTAKGMDSQMTSSLYDSLKQQRTPGSIDSLYGLQRGSSPSPLVNRMQMLGAYGNTTNNNNAYELSERRYSSLRAPSSSEGWEHQQPATVHGYQMKSYVDNLAKERLEALQSRGEIPTSRSMALGTLSYTQQLALALKQKSQNGLTPGPAPGFENFAGSRSISRQSERSYYGVPSSGNTDTVGAAVANEKKYSSMPDISGLSMSARNMHLPNNKSGYWDPSSGGGGYGASYGRLSNESSLYSNLGSRVGVPSTYDDISQSRGGYRDAYSLPQSATTGTGSLWSRQPFEQFGVAERNGAVGEELRNRSNPINIDNNASSNVDAEAKLLQSFRHCILKLIKLEGSEWLFGQSDGVDEELIDRVAAREKFIYEAEAREINQVGHMGEPLISSVPNCGDGCVWRADLIVSFGVWCIHRVLDLSLMESRPELWGKYTYVLNRLQGVIDPAFSKLRTPMTPCFCLQIPASHQRASPTSANGMLPPAAKPAKGKCTTAVTLLDLIKDVEMAISCRKGRTGTAAGDVAFPKGKENLASVLKRYKRRLSNKPVGMNQDGPGSRKNVTAYGSLG
modifications: left off: Cerulean, end not stated, kept
notes: C‐terminal part of EIN2 fused to Cerulean (CER), FRET donor
With B2 the subcellular localization [2] was “localized in the nucleus, ER, and cytoplasm”.

B3: IMPα5: A. thaliana IMPα5 fused to YFP, FRET acceptor (protein)
chain: MSLRPSTKTEIRRIRYKVSVDAEEGRRRREDFLVEIRKSKRNENLMKKRRVKVLPPDYKLISNDPFESLLEIANMITGVFSDDPSLQLEYTTRFRVVLSFDRSPPTDNVIKSGVVPRFVEFLKKDDNPKLQFEAAWALTNIASGASEHTKVVIDHGVVPLFVQLLASPDDDVREQAIWGLGNVAGDSIQCRDFVLNSGAFIPLLHQLNNHATLSILRNATWTLSNFFRGKPSPPFDLVKHVLPVLKRLVYSDDEQVLIDACWALSNLSDASNENIQSVIEAGVVPRLVELLQHASPVVLVPALRCIGNIVSGNSQQTHCVINCGVLPVLADLLTQNHMRGIRREACWTISNITAGLEEQIQSVIDANLIPSLVNLAQHAEFDIKKEAIWAISNASVGGSPNQIKYLVEQNCIKALCDILVCPDLRIILVSLGGLEMILIAGEVDKNLRDVNCYSQMIEDAEGLEKIENLQHHGNNEIYEKAVKILQTYGLVEEDGRLVEEEDEGGDGCSHPEFQFDFSR
modifications: left off: His6, C-terminal, state not stated
notes: A. thaliana IMPα5 fused to YFP, FRET acceptor
For B3, the “average fluorescence lifetime of the EIN2C^479‐1294‐CER donor” value (shortened to “average fluorescence lifetime”) [3] was “only slightly, but not significantly reduced” and the FRET efficiency ([3]; mean, EIN2C^479–1294‐CER donor / IMPα‐YFP acceptor) was 1%.

B4: IMPα7‐YFP: A. thaliana IMPα7 fused to YFP, FRET acceptor (protein)
chain: MKGGETMSVRRSGYKAVVDGVGGRRRREDDMVEIRKAKREESLLKKRREALPHSPSADSLDQKLISCIWSDERDLLIEATTQIRTLLCGEMFNVRVEEVIQAGLVPRFVEFLTWDDSPQLQFEAAWALTNIASGTSENTEVVIDHGAVAILVRLLNSPYDVVREQVVWALGNISGDSPRCRDIVLGHAALPSLLLQLNHGAKLSMLVNAAWTLSNLCRGKPQPPFDQVSAALPALAQLIRLDDKELLAYTCWALVYLSDGSNEKIQAVIEANVCARLIGLSIHRSPSVITPALRTIGNIVTGNDSQTQHIIDLQALPCLVNLLRGSYNKTIRKEACWTVSNITAGCQSQIQAVFDADICPALVNLLQNSEGDVKKEAAWAICNAIAGGSYKQIMFLVKQECIKPLCDLLTCSDTQLVMVCLEALKKILKVGEVFSSRHAEGIYQCPQTNVNPHAQLIEEAEGLEKIEGLQSHENNDIYETAVKILETYWMEEEEEEDQEQQDMIYFPVDNFANMPTSSGTLSEMHCGP
modifications: left off: YFP, end not stated, kept
notes: A. thaliana IMPα7 fused to YFP, FRET acceptor
In the case of B4, the “average fluorescence lifetime” value [3] is reported as “significant reduction”.

B5: IMPα6‐YFP: A. thaliana IMPα6 fused to YFP, FRET acceptor (protein)
chain: MSYKPSAKTEVRRNRYKVSVDADEGRRRREDNMVEIRKNKREENLQKKRREGFNPSMASQPGQDFSSSLPTETRLENIQQMIAGVMSEDRDLQLEATASFRRLLSIERNPPINEVVQSGVVPHIVQFLSRDDFTQLQFEAAWALTNIASGTSENTRVIIDSGAVPLFVKLLSSASEEVREQAVWALGNVAGDSPKCRDHVLSCEAMMSLLAQFHEHSKLSMLRNATWTLSNFCRGKPQPAFEQTKAALPALERLLHSTDEEVLTDASWALSYLSDGTNEKIQTVIDAGVIPRLVQLLAHPSPSVLIPALRTIGNIVTGDDIQTQAVISSQALPGLLNLLKNTYKKSIKKEACWTISNITAGNTSQIQEVFQAGIIRPLINLLEIGEFEIKKEAVWAISNATSGGNHDQIKFLVSQGCIRPLCDLLPCPDPRVVTVTLEGLENILKVGEAEKNLGNTGNDNLYAQMIEDADGLDKIENLQSHDNNEIYEKAVKILESYWAADDEEEDIGGVDAPENVQSSGFQFGNQSGNAPTGGFNFG
modifications: left off: YFP, end not stated, kept
notes: A. thaliana IMPα6 fused to YFP, FRET acceptor
B5 was tested, and the “average fluorescence lifetime” value [3] was “significant reduction”.
